Measured values taken from publication PMC10754010, “CRISPR/Cas9‐based genome editing of 14 lipid metabolic genes reveals a sporopollenin metabolon ZmPKSB‐ZmTKPR1‐1/‐2 required for pollen exine formation in maize”.

Target: T1, ZmMYB84 (MBP fusion) (Zea mays, UniProt B4FQD3 1-356)
T1 sequence: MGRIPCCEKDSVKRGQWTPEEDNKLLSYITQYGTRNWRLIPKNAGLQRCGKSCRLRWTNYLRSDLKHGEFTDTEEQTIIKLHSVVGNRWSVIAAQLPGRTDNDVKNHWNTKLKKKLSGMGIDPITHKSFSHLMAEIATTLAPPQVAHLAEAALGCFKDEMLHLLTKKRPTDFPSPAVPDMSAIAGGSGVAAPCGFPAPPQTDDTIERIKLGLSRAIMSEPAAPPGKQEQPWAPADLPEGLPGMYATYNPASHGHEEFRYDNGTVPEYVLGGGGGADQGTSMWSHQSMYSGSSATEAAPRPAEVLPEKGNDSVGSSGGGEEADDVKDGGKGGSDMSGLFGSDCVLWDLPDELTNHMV
Experiment: EMSA; EMSA conditions not stated (as in Hou et al., 2023)
Details: protein: recombinant; tags: MBP (ZmMYB84 fused to the C-terminus of MBP; vector pMCSG7); label: biotin; 5' overhang 1 nt on each strand (so in the source)

B1: ZmTKPR1-1bio promoter probe (dsDNA)
DNA 1: TAGGAAGGAAGAAGGTTCCTGCAATGCATGTAAGGTTGGTAATTCATGCCTT
DNA 2: AAAGGCATGAATTACCAACCTTACATGCATTGCAGGAACCTTCTTCCTTCCT
Question: Does B1 bind?
Answer: binds

B2: ZmTKPR1-2bio promoter probe (dsDNA)
DNA 1: ATTGCAAATCTACCCCCAACCAACCCAGCTTTGTATCTG
DNA 2: GCAGATACAAAGCTGGGTTGGTTGGGGGTAGATTTGCAA
Question: Does B2 bind?
Answer: binds
